The assay addresses Rev-independent (RI) HIV-1 Gag-CFP (HIV-1). The assay is described as follows: FRET or BRET. (Bioluminescence resonance energy transfer reports proximity on the nanometre scale.)

Take “YFP-HIV.NC (HIV-1 NC protein fused to YFP) (domain or fragment)”: the FRET efficiency is 7.8%.
Then “HIV.Rev-YFP (HIV-1 Rev fused to YFP) (from UniProt P04618 1-116) (natural protein)”, with 16.4%.

(Values after article PMC3578147.)
